The text below walks through data of patent US11034736B2, “Anti-viral cnidarins” (priority 2014, dated 2021).

Read-outs that look alike come from different tables or passages of the source.

In one series the test system is HIV-1RF. The experiment in a line: XTT-tetrazolium anti-HIV assay, HIV-1RF in CEM-SS cells. The class given is cell-based. Conditions: HIV-1RF, T-tropic laboratory strain, CEM-SS cells, XTT, 6 days. Here is the method: (§1) A 2,3-bis-[2-methoxy-4-nitro-5-sulfophenyl]-2H-tetrazolium-5-carboxanilide inner salt (XTT)-tetrazolium-based assay was used to determine the anti-HIV activity of CNID-1, -2 and -3 against a T-tropic laboratory strain (HIV-1RF) in T-lymphoblastic CEM-SS cells as described previously (Gulakowski et al., J. Virol. Methods, 33: 87-100 (1991)). CEM-SS cells were maintained in RPMI 1640 media without phenol red and supplemented with 10% fetal bovine serum (BioWhittaker), 2 mM L-glutamine (BioWhittaker), and 50 μg/ml gentamicin (BioWhittaker) (complete medium). Exponentially growing cells were washed and resuspended in complete medium, and a 50 μl aliquot containing 5×10^3 cells was added to individual wells of a 96-well round-bottom microtiter plate containing serial dilutions of the respective cnidarin protein in a volume of 100 μl of medium. Stock supernatants of HIV-1RF were diluted in complete medium to yield sufficient cytopathicity (80-90% cell kill in 6 days), and a 50 μl aliquot was added to appropriate wells. Plates were incubated for 6 days at 37° C. and then stained for cellular viability using XTT.
(§2) The HIV reverse transcriptase inhibitor 3′-Azido-3′-deoxythymidine (AZT) was used as a positive control. All assays were carried out in triplicate for all viruses and cells.
In general terms: Formazan colour is commonly taken as a measure of viable cells.

A further series relates to CEM-SS cells. The experiment in a line: Direct toxicity to uninfected CEM-SS control cells (XTT). The class given is cell-based, human. As for the experimental part:
as §1, §2

In the next series the test system is HIV-1Ba-L. The experiment in a line: HIV-1 Ba-L replication in human primary macrophage cultures, p24 ELISA. Conditions: M-tropic, human primary macrophages. The class given is cell-based. From the text: (§3) To test the anti-HIV activity of CNID1 against HIV primary isolates in fresh human cells, monocyte-tropic HIV-1 strain Ba-L was obtained from the NIAID AIDS Research and Reference Reagent Program (National Institutes of Health, Bethesda, Md.). The low passage HIV-1 pediatric isolate ROJO was derived as described previously (Buckheit et al., AIDS Res. Hum. Retroviruses, 10: 1497-1506 (1994)). Human peripheral blood mononuclear cells (PBMCs) and macrophages were isolated from hepatitis and HIV seronegative donors following Ficoll-Paque centrifugation as described elsewhere (Gartner & Popovic, Techniques in HIV Research, Aldovini, A. and Walker B., eds., pp. 59-63, Stockton Press, New York, 1990). Antiviral assays were carried out with 3-day-old phytohaemagglutinin/interleukin-2 stimulated PBMCs or 6-day-cultured monocyte/macrophages. […] HIV-1 replication in PBMC (ROJO) or monocyte macrophage (Ba-L) cultures were determined by measurement of reverse transcriptase activity (Buckheit et al., Antiviral Res., 21: 247-265 (1993)) in the supernatants or p24 antigen expression by ELISA (Coulter, Hialeah, Fla.), respectively. Cell viability by formazan dye reduction was determined in replicated cultures using the CellTiter reagent (Promega, Madison, Wis.). […]

The next series relates to Macrophage. The experiment in a line: Cell viability of monocyte/macrophage cultures (CellTiter formazan dye reduction). The class given is cell-based, human. Conditions: macrophages.
Source text: as §3

The subject of a further series is HIV-1ROJO. The experiment in a line: HIV-1 ROJO replication in human PBMC cultures, supernatant reverse transcriptase activity. Conditions: T-tropic primary isolate. The class given is cell-based.
Source text: as §3

The next series has as its system PBMC. The experiment in a line: Cell viability of PBMC cultures (CellTiter formazan dye reduction). The class given is cell-based, human.
Source text: as §3

Series [1] has as its system HIV-1IIIB. The experiment in a line: Viral attachment assay, cell-associated p24 antigen in HeLa CD4 LTR β-gal cells. The class given is cell-based. As for the experimental part: (§4) Attachment and fusion assays were performed in HeLa-CD4-LTR-β-galactosidase cell lines as described previously (Gartner & Popovic, (1990), supra) with the following modifications. Following the interaction of HIV-1IIIIIB with HeLa CD4 LTR β-gal cells, viral attachment to HeLa CD4 LTR β-gal cells was detected as cell-associated p24 antigen following a 1 hour adsorption of virus and vigorous washing for removal of unbound virus. Fusion of HIV-1IIIIB with HeLa CD4 LTR β-gal cells was detected by chemiluminescence using a single-step lysis and detection method (Tropix Gal-screen, Bedford, Mass.) and results reported as EC50 values. Chicago Sky Blue, a polysulfonic acid dye inhibitor of HIV attachment and fusion, was used as a positive control for all assays (Clanton et al., J. Acquired Immune Defic. Syndr., 5: 771-781 (1992)).

The test system of series [2] is HIV-1IIIB. The experiment in a line: Viral fusion assay, chemiluminescence in HeLa CD4 LTR β-gal cells. The class given is cell-based. As for the experimental part:
as §4

The test system of series [3] is HeLa CD4 LTR β-galactosidase cells. The experiment in a line: Cytotoxicity in the attachment and fusion assays. The class given is cell-based. As for the experimental part: as §2, §4
The test system of a further series is HIV-1US/92/727. The experiment in a line: Anti-HIV evaluation in PHA-stimulated human PBMCs, reverse transcriptase in supernatant. The class given is cell-based. Conditions: HIV-1US/92/727, human PBMCs, 7 days. Here is the method: (§5) The cultures were incubated for 7 days at 37° C./5% CO2. Efficacy of the compounds was evaluated by measuring the amount of reverse transcriptase in the culture supernatant and toxicity was evaluated using XTT to measure cell viability. AZT was evaluated in parallel as an assay control.

The test system of the next series is human PBMCs. The experiment in a line: Toxicity in PHA-stimulated human PBMCs, XTT cell viability. Conditions: human PBMCs, XTT, 7 days. As for the experimental part:
as §5

For a further series, the target named is HIV-1HXB2 gp41 (Human immunodeficiency virus type 1 group M subtype B, UniProt P04578). Conditions: ELISA, 100 ng/well gp41. As for the experimental part: High protein binding Greiner 96-well plates (VWR, Bridgeport, N.J.) were coated with 1 pmol/well of recombinant HIV-1IIIIB gp120 (Immuno Diagnostics, Woburn, Mass.) or recombinant HIV-1HXB2 gp41 (Vybion Inc., Ithaca, N.Y.) at 4° C. overnight. The wells were emptied and then blocked with 200 μl/well of 3% non-fat dry milk (Bio-Rad, Hercules, Calif.) blocking solution for 2 hrs. A control plate was incubated with blocking solution only. After washing three times with PBST, 0.5-log10 serial dilutions of rCNID-1-Trx were added to triplicate wells of gp120−, gp41− and the blocking solution control plate, and the plates were incubated for 2 hrs. The plates were washed with PBST and 100 W/well of a 1:250 dilution of polyclonal rabbit anti-CNID-1 antibody was added and allowed to incubate for 1 hr, followed by three washes with PBST. Goat anti-rabbit (H+L), peroxidase conjugated secondary antibody (Thermo Fisher Scientific Inc., Rockford, Ill.) was added to each well (100 μl/well of a 1:1000 dilution) and further incubated for 1 hr, followed by three washes with PBST. The TMB 2-component Microwell peroxidase substrate kit (KPL Inc., Gaithersburg, Md.) was used for peroxidase detection: 100 W/well, incubation for 5-10 min and the reaction was stopped by addition of 0.5M HCl (100 W/well) before reading the absorbance at 450 nm.
HIV-1HXB2 gp41, sequence (P04578 512-856): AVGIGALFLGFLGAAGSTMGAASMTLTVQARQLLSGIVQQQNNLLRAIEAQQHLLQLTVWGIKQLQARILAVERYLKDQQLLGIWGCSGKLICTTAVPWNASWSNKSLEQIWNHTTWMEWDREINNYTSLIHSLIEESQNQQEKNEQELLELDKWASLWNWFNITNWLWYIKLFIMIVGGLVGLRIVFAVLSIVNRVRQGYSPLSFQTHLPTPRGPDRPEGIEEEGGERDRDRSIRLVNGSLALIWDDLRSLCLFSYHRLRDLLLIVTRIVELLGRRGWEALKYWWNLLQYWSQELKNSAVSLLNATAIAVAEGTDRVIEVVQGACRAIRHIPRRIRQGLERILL

B1: CNID-1: HIV-inhibitory protein from soft coral Synthecium sp.; 172 amino acids, 18,122 Da, SEQ ID NO: 1 (protein)
chain: GRATLGQLKTSTIPPVTFDVPFDGANIPQDVRFTIATVNGGKGALYNAELGESAGHTIVLESDGDHPIPGTFDPKSGRGLDYLPRGLVLFSSHNYVGNMKMYTEPDSDITADFPPGTPFGVSSAITGEGSAFQLNTGIDHTGEFEIIPPNTKRNLAGVFDNEIRSVSPTGGK
The EC50 is the concentration that produces a half-maximal response. The term CC50 denotes the concentration at which the toxic effect on the cells reaches its halfway point. As to B1, the EC50 with HIV-1RF is 0.0845 nM; with HIV-1Ba-L it was 1.05 nM; in the series on HIV-1ROJO, 3.97 nM; in the series with HIV-1IIIB [1] (read-out: Inhibition of Attachment EC50), more than 55.2 nM; with HIV-1IIIB [2] (read-out: Inhibition of Fusion EC50), 1.49 nM; in the series on HIV-1US/92/727, 0.0427 µg/mL. Also, the CC50 is 112 nM in the series on CEM-SS cells; 3.56 nM in the series on Macrophage; 144 nM in the series on PBMC; more than 55.2 nM in series [3] (attachment assay, read-out: Inhibition of Attachment CC50); more than 55.2 nM in series [3] (fusion assay, read-out: Inhibition of Fusion CC50). The “Inhibition of viral attachment to the cell” value in the series with HIV-1IIIB [1] was “did not inhibit attachment”. For the same molecule, the “Inhibition of viral fusion” value with HIV-1IIIB [2] is on record as “inhibit HIV viral fusion”. Further, in the series with human PBMCs, the TC50 was more than 0.5 µg/mL. Also, in the series with HIV-1HXB2 gp41, the “Binding to gp41” value was “not gp41”.
